# Data taken from US20120316071A1 (published 2012).
# T1: rHuman Erythropoietin R/Fc Chimera, CF (R&D Systems Cat#963-ER) (human, UniProt P19235 25-250)
# T1 construct: Bought reagent; also called EPO R; EPO R/Fc; Fc part of the bought chimera not given
# T1 sequence (looked up): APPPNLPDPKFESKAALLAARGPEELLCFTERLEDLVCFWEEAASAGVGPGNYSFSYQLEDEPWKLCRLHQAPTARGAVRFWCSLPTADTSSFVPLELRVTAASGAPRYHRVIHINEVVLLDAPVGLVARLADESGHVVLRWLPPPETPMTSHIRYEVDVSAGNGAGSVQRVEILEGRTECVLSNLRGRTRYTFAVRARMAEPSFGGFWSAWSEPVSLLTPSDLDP
# Key:
# [1] = biological target: T2, rHuman EGF R/Fc Chimera, CF (R&D Systems Cat#344-ER) (human, UniProt P00533 25-645); assay: ECL Multispot (MSD), 10 nM Fab; blank 372
# T2 construct: Bought reagent; also called epidermal growth factor receptor; Fc part of the bought chimera not given
# [2] = biological target: T1, rHuman Erythropoietin R/Fc Chimera, CF …; assay: ECL Multispot (MSD), 10 nM Fab; blank 372
# [3] = biological target: T3, rHuman P-Cadherin/Fc Chimera, CF (R&D Systems Cat#861-PC) (human, UniProt P22223 108-654); assay: ECL Multispot (MSD), 10 nM Fab; blank 372
# T3 construct: Bought reagent; Fc part of the bought chimera not given
# [4] = biological target: T4, rHuman HGF R/c-MET/Fc Chimera, CF (R&D Systems Cat#358-MT/CF) (human, UniProt P08581 25-932); assay: ECL Multispot (MSD), 10 nM Fab; blank 372
# T4 construct: Bought reagent; also called HGF R/Fc; hepatocyte growth factor receptor; Fc part of the bought chimera not given
# [5] = biological target: T5, rHuman CD44/Fc Chimera, CF (R&D Systems Cat#3660-CD) (human, UniProt P16070 21-220); assay: ECL Multispot (MSD), 10 nM Fab; blank 372
# T5 construct: Bought reagent; Fc part of the bought chimera not given
# [6] = biological target: T6, rHuman Notch-1/Fc Chimera, CF (R&D Systems Cat#3647-TK) (human, UniProt P46531 19-526); assay: ECL Multispot (MSD), 10 nM Fab; blank 372
# T6 construct: Bought reagent; Fc part of the bought chimera not given
# [7] = biological target: T7, rHuman IGF-1 sR, CF (R&D Systems Cat#391-GR) (human, UniProt P08069 31-932); assay: ECL Multispot (MSD), 10 nM Fab; blank 372
# T7 construct: Bought soluble receptor; also called insulin-like growth factor-1 soluble receptor
# [8] = biological target: T8, rHuman ErbB2/Fc Chimera, CF (R&D Systems Cat#1129-ER) (human, UniProt P04626 23-652); assay: ECL Multispot (MSD), 10 nM Fab; blank 372
# T8 construct: Bought reagent; also called human epidermal growth factor 2 receptor; Fc part of the bought chimera not given
# [9] = biological target: T2, rHuman EGF R/Fc Chimera, CF (R&D …); assay: ECL Multispot (MSD), 10 nM Fab; blank 198
# [10] = biological target: T1, rHuman Erythropoietin R/Fc Chimera, CF …; assay: ECL Multispot (MSD), 10 nM Fab; blank 198
# [11] = biological target: T3, rHuman P-Cadherin/Fc Chimera, CF (R&D …); assay: ECL Multispot (MSD), 10 nM Fab; blank 198
# [12] = biological target: T4, rHuman HGF R/c-MET/Fc Chimera, CF (R&D …); assay: ECL Multispot (MSD), 10 nM Fab; blank 198
# [13] = biological target: T5, rHuman CD44/Fc Chimera, CF (R&D Systems …); assay: ECL Multispot (MSD), 10 nM Fab; blank 198
# [14] = biological target: T6, rHuman Notch-1/Fc Chimera, CF (R&D …); assay: ECL Multispot (MSD), 10 nM Fab; blank 198
# [15] = biological target: T7, rHuman IGF-1 sR, CF (R&D Systems …); assay: ECL Multispot (MSD), 10 nM Fab; blank 198
# [16] = biological target: T8, rHuman ErbB2/Fc Chimera, CF (R&D …); assay: ECL Multispot (MSD), 10 nM Fab; blank 198
# [17] = biological target: T2, rHuman EGF R/Fc Chimera, CF (R&D …); assay: ECL Multispot (MSD), 10 nM Fab; blank 320
# [18] = biological target: T1, rHuman Erythropoietin R/Fc Chimera, CF …; assay: ECL Multispot (MSD), 10 nM Fab; blank 320
# [19] = biological target: T3, rHuman P-Cadherin/Fc Chimera, CF (R&D …); assay: ECL Multispot (MSD), 10 nM Fab; blank 320
# [20] = biological target: T4, rHuman HGF R/c-MET/Fc Chimera, CF (R&D …); assay: ECL Multispot (MSD), 10 nM Fab; blank 320
# [21] = biological target: T5, rHuman CD44/Fc Chimera, CF (R&D Systems …); assay: ECL Multispot (MSD), 10 nM Fab; blank 320
# [22] = biological target: T6, rHuman Notch-1/Fc Chimera, CF (R&D …); assay: ECL Multispot (MSD), 10 nM Fab; blank 320
# [23] = biological target: T7, rHuman IGF-1 sR, CF (R&D Systems …); assay: ECL Multispot (MSD), 10 nM Fab; blank 320
# [24] = biological target: T8, rHuman ErbB2/Fc Chimera, CF (R&D …); assay: ECL Multispot (MSD), 10 nM Fab; blank 320
# [25] = biological target: T9, rHuman EGF R/Fc Chimera, CF (R&D Systems Cat#344-ER) (human, UniProt P00533 25-645); assay: ECL Multispot (MSD) assay, antigen spotted on plate, 10 nM Fab; blank spot of this row 290
# T9 construct: Bought reagent; also called epidermal growth factor receptor; Fc part of the bought chimera not given
# [26] = biological target: T10, rHuman P-Cadherin/Fc Chimera, CF (R&D Systems Cat#861-PC) (human, UniProt P22223 108-654); assay: as above
# T10 construct: Bought reagent; Fc part of the bought chimera not given
# [27] = biological target: T11, rHuman ErbB2/Fc Chimera, CF (R&D Systems Cat#1129-ER) (human, UniProt P04626 23-652); assay: as above
# T11 construct: Bought reagent; also called human epidermal growth factor 2 receptor; Fc part of the bought chimera not given
# [28] = biological target: T12, rHuman HGF R/c-MET/Fc Chimera, CF (R&D Systems Cat#358-MT/CF) (human, UniProt P08581 25-932); assay: as above
# T12 construct: Bought reagent; also called HGF R/Fc; hepatocyte growth factor receptor; Fc part of the bought chimera not given
# [29] = biological target: T13, rHuman IGF-1 sR, CF (R&D Systems Cat#391-GR) (human, UniProt P08069 31-932); assay: as above
# T13 construct: Bought soluble receptor; The column head prints only 'IGF-1'; also called insulin-like growth factor-1 soluble receptor
binder,measurement,setting,value
"Fab VH1-46_IGHD6-6*01_IGHJ1*01 S102A/S103P/S104F (APF) & L6_IGKJ1*01 (Fab, V domains shown, Tested as a Fab made in E. coli; The heavy chain plasmid A adds CH1 with His6 and Flag tags; The light chain plasmid C adds kappa CL; also called H:APF & L:wt; APF triple mutant) VH: QVQLVQSGAEVKKPGASVKVSCKASGYTFTSYYMHWVRQAPGQGLEWMGIINPSGGSTSYAQKFQGRVTMTRDTSTSTVYMELSSLRSEDTAVYYCAREEYAPFSAEYFQHWGQGTLVTVSS VL: not shown",ECL signal,[1],460
same,ECL signal,[2],252
same,ECL signal,[3],338
same,ECL signal,[4],339
same,ECL signal,[5],298
same,ECL signal,[6],433
same,ECL signal,[7],318
same,ECL signal,[8],513
same,ECL signal,[9],255
same,ECL signal,[10],228
same,ECL signal,[11],280
same,ECL signal,[12],258
same,ECL signal,[13],214
same,ECL signal,[14],336
same,ECL signal,[15],230
same,ECL signal,[16],200
same,ECL signal,[17],324
same,ECL signal,[18],421
same,ECL signal,[19],301
same,ECL signal,[20],269
same,ECL signal,[21],385
same,ECL signal,[22],390
same,ECL signal,[23],270
same,ECL signal,[24],413
"Fab VH1-46_IGHD6-6*01_IGHJ1*01 S102A/S103P/S104F/H111F (APFF) & L6_IGKJ1*01 (Fab, V domains shown, Fab format as for APF (CH1 and kappa CL from the expression plasmids); also called APF H111F; H:APFF & L:wt) VH: QVQLVQSGAEVKKPGASVKVSCKASGYTFTSYYMHWVRQAPGQGLEWMGIINPSGGSTSYAQKFQGRVTMTRDTSTSTVYMELSSLRSEDTAVYYCAREEYAPFSAEYFQFWGQGTLVTVSS VL: not shown",ECL signal,[25],409
same,ECL signal,[26],461
same,ECL signal,[27],370
same,ECL signal,[28],493
same,ECL signal,[29],345
